In PMC5331223, “Differential regulation of the Epr3 receptor coordinates membrane-restricted rhizobial colonization of root nodule primordia”:

Biological target: NIN (520-878) (Lotus japonicus, UniProt Q9S7B1 520-878)
Assay: EMSA; 25 mM Tris-HCl pH 8.0, 80 mM NaCl, 35 mM KCl, 5 mM MgCl2, 10% glycerol, 1 mM DTT, 0.1% Triton; 25 nM probe, 2 ul protein (ERN1 0.75 mg/ml, NIN 1.0 mg/ml stock); 30 min at 30 C (ERN1) or 37 C (NIN); gel in 0.5x TBE
Details: protein: recombinant; tags: His-tag (pET30); label: 6-FAM at 5' of strand 1; blunt

Sequence of NIN (520-878) (Q9S7B1 entry or part of it): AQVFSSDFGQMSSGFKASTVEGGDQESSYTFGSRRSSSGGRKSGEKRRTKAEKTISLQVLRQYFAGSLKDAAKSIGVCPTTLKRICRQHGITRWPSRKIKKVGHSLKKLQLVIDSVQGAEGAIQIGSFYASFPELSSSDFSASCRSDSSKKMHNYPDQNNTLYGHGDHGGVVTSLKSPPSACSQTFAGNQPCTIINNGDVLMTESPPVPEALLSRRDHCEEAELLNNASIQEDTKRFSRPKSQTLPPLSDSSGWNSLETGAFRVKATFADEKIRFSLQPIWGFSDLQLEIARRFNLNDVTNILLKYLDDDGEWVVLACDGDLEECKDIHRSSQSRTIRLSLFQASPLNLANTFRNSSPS

B1: Nin1 probe (Epr3 promoter wt) (dsDNA)
DNA 1: ATACCCTGCCCTTACAGACAAGTATAAGAGGCACAAAA
DNA 2: TTTTGTGCCTCTTATACTTGTCTGTAAGGGCAGGGTAT
binding result: binds
